Measured values as given in patent US20150126713A1 (Astellas, published 2015).

T1: human IL-23R-mouse Fc fusion protein (human; mouse, UniProt Q5VWK5 24-353)
T1 construct: Expressed in FreeStyle 293 cells; also called human IL-23R-Fc fusion protein; not shown: Fc region of mouse immunoglobulin IgG2a as encoded by vector pFUSE-mIgG2A-Fc2 (InvivoGen); limits and any linker not sta
T1 sequence: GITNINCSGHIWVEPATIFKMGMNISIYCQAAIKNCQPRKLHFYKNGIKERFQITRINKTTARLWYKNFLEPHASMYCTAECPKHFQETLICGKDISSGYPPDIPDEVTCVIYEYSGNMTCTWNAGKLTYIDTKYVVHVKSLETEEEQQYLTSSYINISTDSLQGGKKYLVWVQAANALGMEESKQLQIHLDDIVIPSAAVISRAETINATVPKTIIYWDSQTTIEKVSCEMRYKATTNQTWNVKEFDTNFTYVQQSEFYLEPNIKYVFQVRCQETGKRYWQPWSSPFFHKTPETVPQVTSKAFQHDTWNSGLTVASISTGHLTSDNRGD

T2: human IL-23R on Kit-225 cells (human, UniProt Q5VWK5 24-629)
T2 sequence: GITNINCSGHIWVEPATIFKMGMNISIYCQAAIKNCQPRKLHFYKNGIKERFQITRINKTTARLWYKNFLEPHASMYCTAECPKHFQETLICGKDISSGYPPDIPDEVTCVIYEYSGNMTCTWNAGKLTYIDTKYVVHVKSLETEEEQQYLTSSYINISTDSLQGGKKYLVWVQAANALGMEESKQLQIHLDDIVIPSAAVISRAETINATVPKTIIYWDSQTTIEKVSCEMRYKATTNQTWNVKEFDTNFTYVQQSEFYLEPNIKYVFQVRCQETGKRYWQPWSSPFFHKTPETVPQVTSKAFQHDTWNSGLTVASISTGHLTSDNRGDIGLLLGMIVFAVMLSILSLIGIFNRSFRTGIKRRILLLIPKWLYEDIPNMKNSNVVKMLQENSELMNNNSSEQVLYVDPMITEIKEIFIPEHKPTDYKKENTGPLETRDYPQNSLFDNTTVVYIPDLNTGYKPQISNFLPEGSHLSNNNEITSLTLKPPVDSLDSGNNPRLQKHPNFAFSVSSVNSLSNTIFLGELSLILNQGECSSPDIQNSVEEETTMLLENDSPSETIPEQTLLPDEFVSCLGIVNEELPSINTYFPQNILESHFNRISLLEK

B1: fully human 25-3-1 (antibody, human IgG1, kappa, V domains shown)
VH: QVQLQESGPGLVKPSQTLSLTCSVSGGSIDSGDHYWTWIRQHPGKGLEWIGYIYSSGHTYYSPSLKSRVTISVDTSKNQFSLRLSSVTAADTAVYYCARVGDYEWFDTWGQGTLVTVSS
VL: DIVMTQSPDSLAVSLGERATINCKSSQTILYPSNNMNYLGWYQQRAGQSPRLLIYWASTRESGVPDRFSGSGSGTDFTLTISSLQAEDVAVYYCQQYYSSLPTFGQGTKVEIKR
notes: human Ig gamma1 / kappa
B2: fully human 25-3 (antibody, human IgG1, kappa, V domains shown)
VH: QVQLQESGPGQVKPSQTLSLTCSVSGGSIDSGDHYWTWIRQHPGEVLEWIGYIYSSGHTYYSPSLKSRLTMSLDTSKNQFSLRLSSVTAADTAVYYCARVGDYEWFDTWGQGTLVTVSS
VL: DIVMTQSPDSLAVSLGERATINCKSSQTILYPSNNMNYLGWYQQRAGQSPRLLIYWASTRESGVPDRFSGSGSGTDFTLTISSLQAEDVAVYYCQQYYSSLPTFGQGTKVEIKR
notes: Human Ig gamma1 / human kappa constant regions; expressed in CHO-K1SV cells; also called fully human antibody of 25-3
B3: fully human 25-3-2 (antibody, human IgG1, kappa, V domains shown)
VH: QVQLQESGPGLVKPSQTLSLTCSVSGGSIDSGDHYWTWIRQHPGKGLEWIGYIYSSGHTYYSPSLKSRVTISVDTSKNQFSLRLSSVTAADTAVYYCARVGDYEWFDTWGQGTLVTVSS
VL: DIVMTQSPDSLAVSLGERATINCKSSQTILYPSNNMNYLGWYQQKPGQSPRLLIYWASTRESGVPDRFSGSGSGTDFTLTISSLQAEDVAVYYCQQYYSSLPTFGQGTKVEIKR
notes: human Ig gamma1 / kappa
B4: fully human 25-3-3 (antibody, human IgG1, kappa, V domains shown)
VH: QVQLQESGPGLVKPSQTLSLTCSVSGGSISSGDHYWTWIRQHPGKGLEWIGYIYSSGHTYYSPSLKSRVTISVDTSKNQFSLRLSSVTAADTAVYYCARVGDYEWFDTWGQGTLVTVSS
VL: DIVMTQSPDSLAVSLGERATINCKSSQTILYPSNNMNYLGWYQQRAGQSPRLLIYWASTRESGVPDRFSGSGSGTDFTLTISSLQAEDVAVYYCQQYYSSLPTFGQGTKVEIKR
notes: human Ig gamma1 / kappa
B5: fully human 25-3-4 (antibody, human IgG1, kappa, V domains shown)
VH: QVQLQESGPGLVKPSQTLSLTCSVSGGSISSGDHYWTWIRQHPGKGLEWIGYIYSSGHTYYSPSLKSRVTISVDTSKNQFSLRLSSVTAADTAVYYCARVGDYEWFDTWGQGTLVTVSS
VL: DIVMTQSPDSLAVSLGERATINCKSSQTILYPSNNMNYLGWYQQKPGQSPRLLIYWASTRESGVPDRFSGSGSGTDFTLTISSLQAEDVAVYYCQQYYSSLPTFGQGTKVEIKR
notes: human Ig gamma1 / kappa
B6: 25-3 (chimeric) (antibody, V domains shown)
VH: QVQLQESGPGQVKPSQTLSLTCSVSGGSIDSGDHYWTWIRQHPGEVLEWIGYIYSSGHTYYSPSLKSRLTMSLDTSKNQFSLRLSSVTAADTAVYYCARVGDYEWFDTWGQGTLVTVSS
VL: DIVMTQSPDSLAVSLGERATINCKSSQTILYPSNNMNYLGWYQQRAGQSPRLLIYWASTRESGVPDRFSGSGSGTDFTLTISSLQAEDVAVYYCQQYYSSLPTFGQGTKVEIKR
notes: also called antibody (chimeric antibody) named 25-3

Assays:
[1] = molecular target: T3, monkey IL-23R-mouse Fc fusion protein (monkey; mouse); assay: antigen ELISA, monkey IL-23R-mouse Fc immobilized, HRP anti-human IgG, chemiluminescence
T3 construct: extracellular domain; also called monkey IL-23R-Fc fusion protein
Description: (§1) The present inventors used an antigen ELISA to measure the antigen-specific binding activities of the fully human antibodies constructed in the above-described Example. A human or monkey IL-23R-Fc fusion protein was immobilized onto a Maxisorp 384-well plate (Nunc, Inc.) at a concentration of 500 ng/mL. A blocking agent (Blocking One; Nacalai Tesque, Inc.) was added thereto and allowed to stand at room temperature for 1 hour, followed by washing twice with a wash buffer [TPBS: 0.05% Tween-20-containing phosphate buffered saline (PBS)], and each of the purified antibody samples was suitably serially diluted and added thereto. Incubation was performed at room temperature for 1 hour, followed by washing four times with TPBS, and HRP-labeled anti-human IgG antibody (DAKO) which was 2000-fold diluted with dilution buffer (Blocking One which was two-fold diluted with PBS) was added as secondary antibody. Incubation was performed at room temperature for 1 hour, followed by washing four times with a washing buffer. […] of BM-chemiluminescence ELISA substrate (POD) (Roche Diagnostics) that is a reagent for detecting chemiluminescence was added thereto and the amount of chemiluminescence was measured with an EnVision counter (Perkin Elmer). Each of the antibodies was tested in duplicate, and the EC 50 was analyzed by curve fitting.

[2] = molecular target: T1, human IL-23R-mouse Fc fusion protein; assay: antigen ELISA, human IL-23R-mouse Fc immobilized, HRP anti-human IgG, chemiluminescence
Description: as §1

[3] = molecular target: T2, human IL-23R on Kit-225 cells; assay: cell-based or functional assay
[4] = molecular target: T3, monkey IL-23R-mouse Fc fusion protein; assay: antigen ELISA, monkey IL-23R-mouse Fc immobilized, HRP anti-mouse Ig, chemiluminescence
Description: (§2) The present inventors used an antigen ELISA to measure the antigen-specific binding activity of the antibody. The human or monkey IL-23R-Fc fusion protein was immobilized onto a Maxisorp 384-well plate (Nunc, Inc.) at a concentration of 500 ng/mL. A blocking agent (Blocking One; Nacalai Tesque, Inc.) was added thereto and allowed to stand at room temperature for 1 hour, followed by washing twice with a wash buffer [TPBS: a phosphate buffered saline (PBS) containing 0.05% Tween-20], and the purified antibody samples were suitably serially diluted and added thereto. Incubation was performed at room temperature for 1 hour, followed by washing four times with TPBS, and HRP-rabbit anti-mouse Ig antibody (DAKO) which was 2000-fold diluted with a dilution buffer (Blocking One which was two-fold diluted with PBS) was added. Incubation was performed at room temperature for 1 hour, followed by washing four times with a wash buffer. 40 μL of BM-chemiluminescence ELISA substrate (POD) (Roche Diagnostics), which is a reagent for detecting chemical luminescence, was added, and the amount of chemiluminescence was measured with an EnVision counter (Perkin Elmer). Each antibody was tested in duplicate and the EC50 was analyzed by curve fitting. […]

[5] = molecular target: T1, human IL-23R-mouse Fc fusion protein; assay: antigen ELISA, human IL-23R-mouse Fc immobilized, HRP anti-mouse Ig, chemiluminescence
Description: as §2

| EC50 [1] [µg/mL] | EC50 [2] [µg/mL] | Human IL-23-inducible Kit-225 cell proliferation inhibitory activity, IC50 [3] [µg/mL] | EC50 [4] [µg/mL] | EC50 [5] [µg/mL] | Binder |
| --- | --- | --- | --- | --- | --- |
| 0.0124 | 0.0176 | 0.00309 |  |  | B1 |
| 0.0123 | 0.019 | 0.00225 |  |  | B2 |
| 0.0122 | 0.0164 | 0.00266 |  |  | B3 |
| 0.0121 | 0.0221 | 0.00568 |  |  | B4 |
| 0.0121 | 0.0223 | 0.00348 |  |  | B5 |
|  |  |  | 0.028 | 0.021 | B6 |
